Reference: patent US20040203128A1 (GENSET S A, published 2004)

Target: GST protein (negative control, from pGEX2TK) (UniProt P08515 1-218 = GST)
Assay: solid phase overlay assay, 32P-labeled GST-PPP2R2C probe on blotted protein
Method: After 4.5 hr of incubation, the membrane was washed with Hyb75 buffer, 1 mM DTT, 1% (w/v) non-fat dry milk three times for 15 min at room temperature. The blots were analyzed by autoradiography.

Chain of GST protein (negative control, from pGEX2TK) (P08515 whole entry): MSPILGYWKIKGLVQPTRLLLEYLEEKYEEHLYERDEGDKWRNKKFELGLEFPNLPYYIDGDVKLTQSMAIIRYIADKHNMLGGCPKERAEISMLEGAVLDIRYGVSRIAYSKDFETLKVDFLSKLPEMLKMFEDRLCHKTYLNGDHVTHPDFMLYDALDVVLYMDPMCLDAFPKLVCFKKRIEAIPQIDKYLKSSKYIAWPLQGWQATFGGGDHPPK

B1: GST-PPP2R2C radiolabeled recombinant protein (other)
chain: GEDTDTRKINHSFLRDHSYVTEADIISTVEFNHTGELLATGDKGGRVVIFQREPESKNAPHSQGDYDVYSTFQSHEPEFDYLKSLEIEEKINKIKWLPQQNAAHSLLSTNDKTIKLWKITERDKRPEGYNLKDEEGKLKDLSTVTSLQVPVLKPMDLMVEVSPRRIFANGHTYHINSISVNSDCETYMSADDLRINLWHLAITDRSFNIVDIKPANMEDLTEVITASEFHPHHCNLFVYSSSKGSLRLCDMPAAALCDKHSKLFEEPEDPSNRSFFSEIISSVSDVKFSHSDRYMLTRDYLTVKVWDLNMEARPIETYQVHDYLRSKLCSLYENDCIFDKFECAWNGSDSVIMTGAYNNFFRMFDRNTKRDVTLEASRESSKPRAVLKPRRVCVGGKRRRDDISVDSLDFTKKILHTAWHPAENIIAIAATNNLYIFQDKVNSDMH
modifications: 32P-phosphorylated in vitro with PKA and [32P]-γATP (site not stated)
notes: Insert is nucleotides 55-1540 of AF086924 (the bait construct starts at 52), so the first codon may be missing; also called PP2A/Bγ; protein encoded by pGEX-2TK-PPP2R2C; not shown: glutathione S-transferase encoded by the pGEX-2TK vector (Amersham Pharmacia Biotech)
B1: no binding (tested: 100 ng, 10 ng and 0.1 ng of GST loaded).
